{"source": "paper PMC6219635", "test_in_all_cases": "SDS-PAGE under non-reducing conditions", "key": {"[1]": {"molecular_target": "FG-IncD M (FLAG-tagged TM region of IncD) (Chlamydia trachomatis)"}, "[2]": {"molecular_target": "FG-IncD ΔN (38-146) (Chlamydia trachomatis)"}, "[3]": {"molecular_target": "FG-IncD ΔC (aa 1-91) (Chlamydia trachomatis)"}}}
{"substance": "FG-IncD M (FLAG-tagged TM region of IncD) (domain or fragment)", "values": [{"measurement": "stoichiometry N", "setting": "[1]", "result": 2}]}
{"substance": "FG-IncD ΔN (38-146) (domain or fragment)", "values": [{"measurement": "stoichiometry N", "setting": "[2]", "result": 2}]}
{"substance": "FG-IncD ΔC (aa 1-91) (domain or fragment)", "values": [{"measurement": "stoichiometry N", "setting": "[3]", "result": 2}]}
